Measurements taken from patent publication US12466890.

Biological target: TL1A monomer mutant
Assay: method not stated (row 'Binds monomer mutant')

Comparator antibody 2 (MK-7240) gave a Kd of 130 pM.
